In series [1] the test system is trypsin. The series can be described thus: Protein protection against proteolytic enzymes (trypsin, then poly(allyl amine) disassembly). In kind it is biochemical, bovine. As for the experimental part:
In order to assess the enzymatic activity of the lysozyme model protein, a turbidimetric enzymatic assay was performed by measuring the decrease in optical density of a suspension of Micrococcus lysodeikticus lyophilized cells, a natural substrate for lysozyme, in PB. Nanocomplexes and also free lysozyme were extracted from the dry powders as previously described, at a protein concentration of […] (as quantified by BCA assay). 10 mg of lyophilised cells were added to 20 mL of PB. 300 μL of this substrate suspension were added to 150 μL of particle solution and the decrease in optical density was measured at λ=460 nm as a function of time for 60 sec. The absorbance decay plots from 0 to 10 sec were fitted to a linear equation and the enzymatic activities were then determined from the slope of the fitted line. Not spray-dried free lysozyme was used in this work as reference (100% enzymatic activity).
Nanocomplexes were recovered from the dry powders as previously described, at a protein concentration of 37 μg mL^−1 (as quantified by BCA assay). 657 μg of trypsin (≥10,000 BAEE units/mg protein) were added to 4 mL of particle solution and the mixture was kept at room temperature for 3 h under gentle stirring. […] Lysozyme activity was then quantified as previously described. […]

The test system of series [2] is complement proteins. The series can be described thus: Complement activation assay (residual haemolytic capacity of normal human serum). The settings on record: at the protein concentrations investigated. On the procedure:
Polymer-lysozyme nanocomplexes or free lysozyme were kept in contact with normal human serum (NHS) and the residual haemolytic capacity was measured to study the complement activation. NHS was received from healthy volunteers, aliquoted and stored at −80° C. until use. Sheep erythrocytes were sensitised by rabbit anti-sheep erythrocyte antibodies at a final dilution of 1/800 v/v and these sensitised sheep erythrocytes were suspended at a final concentration of 1×10^8 cells mL^−1 in veronal-buffer saline (VBS2+, containing 0.5 mM Mg and 0.15 mM Ca2+). VBS2+ and NHS were mixed with polymer-lysozyme nanocomplexes or free lysozyme at final protein concentration of 1.116 mg mL^−1 so that the final dilution of NHS in the reaction mixture was 1/4 (v/v) in a final volume of 400 μl. […] The supernatant was collected and the optical density was measured at 415 nm with Dynex absorbance microplate reader (Dynex technologies, USA).
Sample without serum was used here as […] (100% complement activation, 0% sensitised sheep erythrocytes lysis) and employed to correct the absorbance values from the samples. […] They can be calculated by a linear fit to a log-log version of the Von Krogh (equation 1). Particularly, in this study, the data was expressed as the percentage of complement activation relative to 100% complement activation observed with our positive control samples.

The text below walks through data of US11583587B2, “Polymer” (VECTURA LIMITED, priority 2016, dated 2023).

In the case of “lysozyme: Model protein; samples named lysozyme contained no polymer (lysozyme 5% w/w)”, the “decrease in enzymatic activity after trypsin” value in series [1] (no polymer added to the dry powder) is on record as greater than 60%. The “residual lysozyme activity after trypsin” value in series [1] (trypsin 3 h in PB, then poly(allyl amine) 1 h, % of initial activity) is on record as “less than 40%”. In addition, the “hemolysis of sensitized sheep erythrocytes without serum” value in series [2] was “did not lead to hemolysis”.
